Literature values, collected in patent publication US20050261189A1, “Methods of promoting cardiac cell proliferation” (Hydra Biosciences, Inc., priority 2004, published 2005).

B1: Wnt5b: Wnt polypeptide (protein, UniProt Q9H1J7 18-359, looked up)
Protein Wnt-5b: QLLTDANSWWSLALNPVQRPEMFIIGAQPVCSQLPGLSPGQRKLCQLYQEHMAYIGEGAKTGIKECQHQFRQRRWNCSTADNASVFGRVMQIGSRETAFTHAVSAAGVVNAISRACREGELSTCGCSRTARPKDLPRDWLWGGCGDNVEYGYRFAKEFVDAREREKNFAKGSEEQGRVLMNLQNNEAGRRAVYKMADVACKCHGVSGSCSLKTCWLQLAEFRKVGDRLKEKYDSAAAMRVTRKGRLELVNSRFTQPTPEDLVYVDPSPDYCLRNESTGSLGTQGRLCNKTSEGMDGCELMCCGRGYNQFKSVQVERCHCKFHWCCFVRCKKCTEIVDQYICK
B2: Wnt1: Wnt polypeptide (protein, UniProt P04628 28-370, looked up)
Proto-oncogene Wnt-1: ANSSGRWWGIVNVASSTNLLTDSKSLQLVLEPSLQLLSRKQRRLIRQNPGILHSVSGGLQSAVRECKWQFRNRRWNCPTAPGPHLFGKIVNRGCRETAFIFAITSAGVTHSVARSCSEGSIESCTCDYRRRGPGGPDWHWGGCSDNIDFGRLFGREFVDSGEKGRDLRFLMNLHNNEAGRTTVFSEMRQECKCHGMSGSCTVRTCWMRLPTLRAVGDVLRDRFDGASRVLYGNRGSNRASRAELLRLEPEDPAHKPPSPHDLVYFEKSPNFCTYSGRLGTAGTAGRACNSSSPALDGCELLCCGRGHRTRTQRVTERCNCTFHWCCHVSCRNCTHTRVLHECL
B3: Wnt11: Wnt polypeptide (protein, UniProt O96014 25-354, looked up)
Protein Wnt-11: IKWLALSKTPSALALNQTQHCKQLEGLVSAQVQLCRSNLELMHTVVHAAREVMKACRRAFADMRWNCSSIELAPNYLLDLERGTRESAFVYALSAAAISHAIARACTSGDLPGCSCGPVPGEPPGPGNRWGGCADNLSYGLLMGAKFSDAPMKVKKTGSQANKLMRLHNSEVGRQALRASLEMKCKCHGVSGSCSIRTCWKGLQELQDVAADLKTRYLSATKVVHRPMGTRKHLVPKDLDIRPVKDSELVYLQSSPDFCMKNEKVGSHGTQDRQCNKTSNGSDSCDLMCCGRGYNPYTDRVVERCHCKYHWCCYVTCRRCERTVERYVCK
B4: Wnt3: Wnt polypeptide (protein, UniProt P56703 22-355, looked up)
Proto-oncogene Wnt-3: GYPIWWSLALGQQYTSLGSQPLLCGSIPGLVPKQLRFCRNYIEIMPSVAEGVKLGIQECQHQFRGRRWNCTTIDDSLAIFGPVLDKATRESAFVHAIASAGVAFAVTRSCAEGTSTICGCDSHHKGPPGEGWKWGGCSEDADFGVLVSREFADARENRPDARSAMNKHNNEAGRTTILDHMHLKCKCHGLSGSCEVKTCWWAQPDFRAIGDFLKDKYDSASEMVVEKHRESRGWVETLRAKYSLFKPPTERDLVYYENSPNFCEPNPETGSFGTRDRTCNVTSHGIDGCDLLCCGRGHNTRTEKRKEKCHCIFHWCCYVSCQECIRIYDVHTCK
B5: Wnt2: Wnt polypeptide (protein, UniProt P09544 26-360, looked up)
Protein Wnt-2: SWWYMRATGGSSRVMCDNVPGLVSSQRQLCHRHPDVMRAISQGVAEWTAECQHQFRQHRWNCNTLDRDHSLFGRVLLRSSRESAFVYAISSAGVVFAITRACSQGEVKSCSCDPKKMGSAKDSKGIFDWGGCSDNIDYGIKFARAFVDAKERKGKDARALMNLHNNRAGRKAVKRFLKQECKCHGVSGSCTLRTCWLAMADFRKTGDYLWRKYNGAIQVVMNQDGTGFTVANERFKKPTKNDLVYFENSPDYCIRDREAGSLGTAGRVCNLTSRGMDSCEVMCCGRGYDTSHVTRMTKCGCKFHWCCAVRCQDCLEALDVHTCKAPKNADWTTAT
B6: Wnt9b: Wnt polypeptide (protein, UniProt O14905 23-357, looked up)
Protein Wnt-9b: SYFGLTGREVLTPFPGLGTAAAPAQGGAHLKQCDLLKLSRRQKQLCRREPGLAETLRDAAHLGLLECQFQFRHERWNCSLEGRMGLLKRGFKETAFLYAVSSAALTHTLARACSAGRMERCTCDDSPGLESRQAWQWGVCGDNLKYSTKFLSNFLGSKRGNKDLRARADAHNTHVGIKAVKSGLRTTCKCHGVSGSCAVRTCWKQLSPFRETGQVLKLRYDSAVKVSSATNEALGRLELWAPARQGSLTKGLAPRSGDLVYMEDSPSFCRPSKYSPGTAGRVCSREASCSSLCCGRGYDTQSRLVAFSCHCQVQWCCYVECQQCVQEELVYTCKH
B7: Wnt7b: Wnt polypeptide (protein, UniProt P56706 25-349, looked up)
Protein Wnt-7b: ALSSVVALGANIICNKIPGLAPRQRAICQSRPDAIIVIGEGAQMGINECQYQFRFGRWNCSALGEKTVFGQELRVGSREAAFTYAITAAGVAHAVTAACSQGNLSNCGCDREKQGYYNQAEGWKWGGCSADVRYGIDFSRRFVDAREIKKNARRLMNLHNNEAGRKVLEDRMQLECKCHGVSGSCTTKTCWTTLPKFREVGHLLKEKYNAAVQVEVVRASRLRQPTFLRIKQLRSYQKPMETDLVYIEKSPNYCEEDAATGSVGTQGRLCNRTSPGADGCDTMCCGRGYNTHQYTKVWQCNCKFHWCCFVKCNTCSERTEVFTCK
B8: Wnt9a: Wnt polypeptide (protein, UniProt O14904 30-365, looked up)
Protein Wnt-9a: YFGLTGSEPLTILPLTLEPEAAAQAHYKACDRLKLERKQRRMCRRDPGVAETLVEAVSMSALECQFQFRFERWNCTLEGRYRASLLKRGFKETAFLYAISSAGLTHALAKACSAGRMERCTCDEAPDLENREAWQWGGCGDNLKYSSKFVKEFLGRRSSKDLRARVDFHNNLVGVKVIKAGVETTCKCHGVSGSCTVRTCWRQLAPFHEVGKHLKHKYETALKVGSTTNEAAGEAGAISPPRGRASGAGGSDPLPRTPELVHLDDSPSFCLAGRFSPGTAGRRCHREKNCESICCGRGHNTQSRVVTRPCQCQVRWCCYVECRQCTQREEVYTCKG
B9: Wnt4: Wnt polypeptide (protein, UniProt P56705 23-351, looked up)
Protein Wnt-4: SNWLYLAKLSSVGSISEEETCEKLKGLIQRQVQMCKRNLEVMDSVRRGAQLAIEECQYQFRNRRWNCSTLDSLPVFGKVVTQGTREAAFVYAISSAGVAFAVTRACSSGELEKCGCDRTVHGVSPQGFQWSGCSDNIAYGVAFSQSFVDVRERSKGASSSRALMNLHNNEAGRKAILTHMRVECKCHGVSGSCEVKTCWRAVPPFRQVGHALKEKFDGATEVEPRRVGSSRALVPRNAQFKPHTDEDLVYLEPSPDFCEQDMRSGVLGTRGRTCNKTSKAIDGCELLCCGRGFHTAQVELAERCSCKFHWCCFVKCRQCQRLVELHTCR
B10: Wnt16: Wnt polypeptide (protein, UniProt Q9UBV4 30-365, looked up)
Protein Wnt-16: NWMWLGIASFGVPEKLGCANLPLNSRQKELCKRKPYLLPSIREGARLGIQECGSQFRHERWNCMITAAATTAPMGASPLFGYELSSGTKETAFIYAVMAAGLVHSVTRSCSAGNMTECSCDTTLQNGGSASEGWHWGGCSDDVQYGMWFSRKFLDFPIGNTTGKENKVLLAMNLHNNEAGRQAVAKLMSVDCRCHGVSGSCAVKTCWKTMSSFEKIGHLLKDKYENSIQISDKTKRKMRRREKDQRKIPIHKDDLLYVNKSPNYCVEDKKLGIPGTQGRECNRTSEGADGCNLLCCGRGYNTHVVRHVERCECKFIWCCYVRCRRCESMTDVHTCK

Tested on: one or more non-cardiac cells types
Details: cited from earlier work

Row | Molecule | Wnt signaling pathway shown in one or more non-cardiac cell types
1 | Wnt10b: Wnt polypeptide | signal via the canonical pathway
2 | B1 | signal via the non-canonical signaling pathway
3 | B2 | signal via the canonical pathway
4 | B3 | signal via the non-canonical signaling pathway
5 | B4 | signal via the canonical pathway
6 | B5 | signal via the canonical pathway
7 | B6 | signal via the canonical pathway
8 | B7 | signal via the non-canonical signaling pathway
9 | B8 | signal via the canonical pathway
10 | B9 | signal via the non-canonical signaling pathway
11 | B10 | signal via the canonical pathway
